Measured values reported in patent publication US11267875B2, “Humanized anti-DKK2 antibody and uses thereof” (YALE UNIVERSITY, priority 2015, dated 2022).

Test system: NK-92MI cells
Assay: Granzyme B expression in human NK cell line NK92 by flow cytometry
Type: cell-based
Conditions: recombinant proteins 200 ng/ml, 24 hours
Method: Recombinant Wnt5a and DKK2 (200 ng/ml) were added to NK-92MI cells for 24 hours and Granzyme B contents were analyzed by flow cytometry.
Human NK cell line NK-92 and primary mouse NK cells from spleens and MC38-grafted tumors were tested for their expression of Granzyme and cytotoxic activity in the presence or absence of recombinant proteins of DKK2, Wnt3a, Wnt5a and DKK1, and in the presence or absence of Wnt inhibitors (including LGK-974) and GSK inhibitors (including CHIR 99021). In this manner, the regulation of NK cell activation by DKK2 and Wnt was assessed.

Molecule	Granzyme B expression
Wnt5a: recombinant Wnt5a protein added to NK-92MI cells (protein, UniProt P41221 62-380, looked up) Protein Wnt-5a: IIGAQPLCSQLAGLSQGQKKLCHLYQDHMQYIGEGAKTGIKECQYQFRHRRWNCSTVDNTSVFGRVMQIGSRETAFTYAVSAAGVVNAMSRACREGELSTCGCSRAARPKDLPRDWLWGGCGDNIDYGYRFAKEFVDARERERIHAKGSYESARILMNLHNNEAGRRTVYNLADVACKCHGVSGSCSLKTCWLQLADFRKVGDALKEKYDSAAAMRLNSRGKLVQVNSRFNSPTTQDLVYIDPSPDYCVRNESTGSLGTQGRLCNKTSEGMDGCELMCCGRGYDQFKTVQTERCHCKFHWCCYVKCKKCTEIVDQFVCK	inhibited Granzyme B expression
DKK2: recombinant DKK2 protein added to NK-92MI cells (protein) KLNSIKSSLGGETPGQAANRSAGMYQGLAFGGSKKGKNLGQAYPCSSDKECEVGRYCHSPHQGSSACMVCRRKKKRCHRDGMCCPSTRCNNGICIPVTESILTPHIPALDGTRHRDRNHGHYSNHDLGWQNLGRPHTKMSHIKGHEGDPCLRSSDCIEGFCCARHFWTKICKPVLHQGEVCTKQRKKGSHGLEIFQRCDCAKGLSCKVWKDATYSSKARLHVCQKI	inhibited Granzyme B expression
